Where two headings read alike, the source gives them in different places. Blank lines part the entries; values can stand above or below the molecule they belong to.
Legend:
[1] = Exatecan in plasma, 0.25 mg/kg iv infusion 30 min
Procedure: 24 common cynomolgus monkeys aged 3-5 years (half male and half female) were adopted and randomly divided into 4 groups, and each group consisted of 3 female animals and 3 male animals. […] Blood samples were collected until 504 hours after the end of the administration. The major pharmacokinetic parameters, i.e., AUC(0-t), AUC(0-∞), T1/2, Cmax, Tmax, CL, MRT, etc., were calculated from the plasma concentration data with a non-compartmental model using Phoenix WinNonlin® 7.0 software.

[2] = biological target: Mouse FOLR1 (Mus musculus, UniProt P35846); test: ELISA species specificity of antibodies; assay type: binding; conditions: coated antigen mouse FOLR1
Procedure: (§1) Each antigen was diluted to 1 μg/mL with PBS and added to a microplate (manufacturer: Corning, Catalog No.: 42592) in a volume of 100 μL per well, and the microplate was coated overnight in a refrigerator (2-8° C.). The coating solution was discarded, and 200 μL of a blocking solution (containing 5% skimmed milk powder, prepared from PBS) was added. The microplate was left to stand in an electric thermostatic incubator at 37° C. for 2 h. The blocking solution was discarded, and the microplate was washed 3 times with 0.05% PBST. Antibody dilutions at different concentrations (at an initial concentration of 6 μg/mL, 3-fold dilution, 8 concentration gradients in total, diluted with PBS) were added at 100 μL per well. The microplate was left to stand in the electric thermostatic incubator at 37° C. for 2 h. The antibody dilutions were discarded, and the microplate was washed 8 times with 0.05% PBST and patted dry. Anti-Human Kappa Light Chains (Bound and Free) peroxidase antibody Produced in goat (manufacturer: sigma, Catalog No.: A7164-1ML) diluted in a 1:10000 ratio was added at 100 µL/well. The microplate was left to stand in the electric thermostatic incubator at 37° C. for 1 h. […] The microplate was read on SpectraMax Plus Absorbance Microplate Reader with an absorption light wavelength of 450 nm.

[3] = biological target: Rat FOLR1 (Rattus norvegicus, UniProt Q9JL02); test: ELISA species specificity of antibodies; assay type: binding; conditions: coated antigen rat FOLR1
Procedure: as §1

[4] = biological target: T1, antigen FRα-His (human FRα extracellular domain with C-terminal 8×HIS tag) (human, UniProt P15328 25-233); test: SPR (Biacore T200), antibody captured on Protein A chip, antigen as analyte, 1:1 model
T1 construct: The entry still carries the N-terminal signal peptide; Expressed in CHO-K1 cells; also called FOLR1
Procedure: (§2) A Protein A chip was used for the assay.
(§3) Experiment results were analyzed using data analysis software Evaluation Software 3.1. The sensing signals acquired from the experimental flow channels for the samples were subjected to double subtraction (minus values of reference flow channels and blank control), and the fitting was performed using a “1:1” kinetic model to obtain the kinetic parameters (Ka: association rate; Kd: dissociation rate; KD: equilibrium dissociation constant) for the binding of each sample to the antigens.

[5] = biological target: T1, antigen FRα-His (human FRα …); test: ELISA, antigen coated at 1 µg/mL, antibody titrated
Procedure: (§4) Each antigen was diluted to 1 μg/mL with PBS and added to a microplate (manufacturer: Corning, Catalog No.: 42592) in a volume of 100 μL per well, and the microplate was coated overnight in a refrigerator (2-8° C.). The coating solution was discarded, and 200 μL of a blocking solution (containing 5% skimmed milk powder, prepared from PBS) was added. The microplate was left to stand in an electric thermostatic incubator at 37° C. for 2 h. The blocking solution was discarded, and the microplate was washed 3 times with 0.05% PBST. Antibody dilutions at different concentrations (at an initial concentration of 6 μg/mL, 3-fold dilution, 8 concentration gradients in total, diluted with PBS) were added at 100 μL per well. The microplate was left to stand in the electric thermostatic incubator at 37° C. for 2 h. The antibody dilutions were discarded, and the microplate was washed 8 times with 0.05% PBST and patted dry. Anti-Human Kappa Light Chains (Bound and Free) peroxidase antibody Produced in goat (manufacturer: sigma, Catalog No.: A7164-1ML) diluted in a 1:10000 ratio was added at 100 µL/well. The microplate was left to stand in the electric thermostatic incubator at 37° C. for 1 h. The antibody dilutions were discarded, and the microplate was washed 8 times with 0.05% PBST and patted dry. Single-component TMB substrate solution I (manufacturer: Huzhou InnoReagents Co., Ltd.; Catalog No.: TMB-S-001) was added at 100 μL/well, and the microplate was left to stand in the electric thermostatic incubator at 37° C. for 10 min in the dark. 0.1 M H₂SO₄ was added at 100 μL/well to terminate the reaction.

[6] = biological target: T2, Cynomolgus monkey FOLR1 (manufacturer: Acro, Catalog No.: F01-C52H8) (cynomolgus monkey, UniProt A0A2K5U044 25-233); test: as above
T2 construct: Bought reagent
Procedure: as §4

[7] = biological target: T3, FOLR3 (purchased from R&D, Catalog No. 5319-FR-050) (UniProt P41439 23-245, limits assumed); test: SPR (Biacore T200), antibody captured on Protein A chip, antigen as analyte
T3 construct: Bought reagent; also called folate receptor γ
Procedure: as §2, §3

[8] = biological target: T4, FOLR2 (purchased from Acro, Catalog No. FO2-H5223) (UniProt P14207 17-228); test: as above
T4 construct: Bought reagent; also called folate receptor β
Procedure: as §2, §3

[9] = biological target: T5, Mouse FOLR1 (manufacturer: Acro, Catalog No.: F01-M5225) (mouse, UniProt P35846 25-232); test: ELISA, antigen coated at 1 µg/mL
T5 construct: Bought reagent
Procedure: as §4

[10] = biological target: T6, Rat FOLR1 (manufacturer: sino Biological, Catalog No.: 81073-R08NO0507) (rat, UniProt G3V8M6 25-232); test: ELISA, antigen coated at 1 µg/mL
T6 construct: Bought reagent
Procedure: as §4

[11] = biological target: T1, antigen FRα-His (human FRα …); test: SPR (Biacore T200), antibody captured on Protein A chip, antigen as analyte, 1:1 model; Table 7 experiment (antigen specificity, FOLR1/FOLR2/FOLR3)
Procedure: as §2, §3

[12] = biological target: T1, antigen FRα-His (human FRα …); test: SPR (Biacore T200), drug captured on Protein A chip, FRα-His as analyte, 1:1 model
Procedure: as §2, §3

[13] = biological target: T7, folate receptor α (FRα) on FRα-positive cells (JEG-3, MCF-7) (UniProt P15328 25-234, limits assumed); test: flow cytometry on JEG-3 cells
T7 construct: whole, on cells; also called JEG-3 cells; JEG3 cells
T7 sequence (P15328 25-234 limits assumed): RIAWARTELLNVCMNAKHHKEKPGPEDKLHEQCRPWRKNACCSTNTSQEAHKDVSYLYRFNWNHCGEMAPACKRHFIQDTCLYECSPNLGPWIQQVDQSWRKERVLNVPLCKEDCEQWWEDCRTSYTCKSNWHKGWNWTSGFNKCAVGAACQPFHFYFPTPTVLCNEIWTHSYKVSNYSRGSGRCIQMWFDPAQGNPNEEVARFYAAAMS

T1 sequence (P15328 other isoform, or with tags, fused parts or gaps limits assumed): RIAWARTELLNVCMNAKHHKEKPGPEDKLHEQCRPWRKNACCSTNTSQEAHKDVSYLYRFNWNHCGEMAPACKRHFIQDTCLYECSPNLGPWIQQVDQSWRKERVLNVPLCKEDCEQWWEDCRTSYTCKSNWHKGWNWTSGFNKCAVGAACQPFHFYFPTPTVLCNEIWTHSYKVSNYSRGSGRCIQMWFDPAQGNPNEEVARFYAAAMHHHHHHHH
T6 sequence (G3V8M6 entry or part of it limits assumed): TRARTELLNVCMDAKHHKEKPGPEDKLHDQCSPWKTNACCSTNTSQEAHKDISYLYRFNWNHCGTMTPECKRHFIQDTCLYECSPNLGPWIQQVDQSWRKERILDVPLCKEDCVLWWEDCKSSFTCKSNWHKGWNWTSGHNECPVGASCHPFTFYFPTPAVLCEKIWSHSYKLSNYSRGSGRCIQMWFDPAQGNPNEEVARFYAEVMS
T3 sequence (P41439 23-245 limits assumed): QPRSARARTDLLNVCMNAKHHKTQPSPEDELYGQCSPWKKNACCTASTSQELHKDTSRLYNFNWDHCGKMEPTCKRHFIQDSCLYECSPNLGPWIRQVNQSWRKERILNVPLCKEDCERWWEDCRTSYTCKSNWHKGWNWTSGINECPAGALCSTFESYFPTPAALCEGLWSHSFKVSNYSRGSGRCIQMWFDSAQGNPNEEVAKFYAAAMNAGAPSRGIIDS
T5 sequence (P35846 25-232 limits assumed): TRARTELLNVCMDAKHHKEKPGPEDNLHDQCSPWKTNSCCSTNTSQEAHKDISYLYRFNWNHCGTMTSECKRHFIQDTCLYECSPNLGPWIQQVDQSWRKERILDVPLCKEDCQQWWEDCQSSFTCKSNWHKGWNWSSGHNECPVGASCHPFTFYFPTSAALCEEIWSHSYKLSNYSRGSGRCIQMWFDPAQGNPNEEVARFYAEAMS
T4 sequence (P14207 17-228 limits assumed): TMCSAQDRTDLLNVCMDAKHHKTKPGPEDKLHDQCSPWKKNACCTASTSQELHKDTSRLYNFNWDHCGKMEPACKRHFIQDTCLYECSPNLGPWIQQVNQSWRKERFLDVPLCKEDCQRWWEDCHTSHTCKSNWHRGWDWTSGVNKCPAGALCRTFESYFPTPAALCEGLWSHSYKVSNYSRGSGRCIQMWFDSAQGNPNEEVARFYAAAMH
T2 sequence (A0A2K5U044 entry or part of it): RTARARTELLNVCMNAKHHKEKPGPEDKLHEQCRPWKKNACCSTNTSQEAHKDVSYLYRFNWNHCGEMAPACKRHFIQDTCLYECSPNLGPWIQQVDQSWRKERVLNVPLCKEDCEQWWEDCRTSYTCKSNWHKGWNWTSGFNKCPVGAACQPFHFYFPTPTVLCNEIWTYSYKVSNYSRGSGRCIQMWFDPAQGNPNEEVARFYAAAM
Chain of Rat FOLR1 (Q9JL02 20-255): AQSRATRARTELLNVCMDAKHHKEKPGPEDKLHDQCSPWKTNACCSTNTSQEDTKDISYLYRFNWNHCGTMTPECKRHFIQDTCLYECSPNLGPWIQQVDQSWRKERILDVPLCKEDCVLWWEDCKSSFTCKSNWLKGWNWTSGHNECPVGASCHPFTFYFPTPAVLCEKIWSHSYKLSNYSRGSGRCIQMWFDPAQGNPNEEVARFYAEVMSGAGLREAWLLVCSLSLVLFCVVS
Chain of Mouse FOLR1 (P35846 25-232): as the sequence (P35846 25-232 limits assumed) above

Molecule: (1S,9S)-1-amino-9-ethyl-5-fluoro-9-hydroxy-4-methyl-1,2,3,9,12,15-hexahydro-10H,13H-benzo[3′,4′:6,7]indoline[1,2-b]quinoline-10,13-dione methanesulfonate [Exatecan Mesylate]
AUC(0-t) ([1]; female): 155.05 ng·h/mL | Cmax ([1]; female): 237.567 ng/mL | Tmax ([1]; female): 30 min | AUC(0-t) ([1]; male): 231.77 ng·h/mL | Cmax ([1]; male): 349.808 ng/mL | Tmax ([1]; male): 30 min

B2: Antibody 1 (humanized anti-FRα antibody) (antibody, human IgG1, kappa, V domains shown)
VH: QVQLVQSGVEVKKPGASVKVSCKASGYSFTGYFMNWVRQAPGQGLEWIGRIHPYDGDTFYNQNFKDKATLTVDKSTTTAYMELKSLQFDDTAVYYCTRYDGSRAMDYWGQGTTVTVSS
VL: EIVLTQSPATLSLSPGERATLSCKASQSVSFAGTSLMHWYQQKPGQAPRLLIYRASNLEAGVPARFSGSGSKTDFTLTISSLEPEDFAVYYCQQSREYPYTFGGGTKVEIKR
notes: also called anti-FRα antibody No. 1
Kd [11]: 703 pM | Kd [12]: 287 pM | koff [12]: 0.000293 s⁻¹ | kon [12]: 1.02e+06 M⁻¹ s⁻¹ | EC50 [13]: 1400 pM | EC50 [5]: 0.069 µg/mL | EC50 [6]: 0.066 µg/mL | binding result [7]: no binding (tested: antigen up to 100 nM) | binding result [8]: no binding (tested: antigen up to 100 nM) | binding result [9]: no binding (tested: antibody up to 6 µg/mL) | binding result [10]: no binding (tested: antibody up to 6 µg/mL)

Continued, in another order:

EC50 [2]: — (“—” indicates no binding) | EC50 [3]: — (“—” indicates no binding)
Molecule: huMOV19: control antibody huMOV19, heavy chain SEQ ID NO: 34, light chain SEQ ID NO: 35

Kd [4]: 468 pM | EC50 [5]: 0.09 µg/mL | EC50 [6]: 0.087 µg/mL
B1: control antibody huMOV19 (antibody, human IgG1, kappa, V domains shown)
VH: QVQLVQSGAEVVKPGASVKISCKASGYTFTGYFMNWVKQSPGQSLEWIGRIHPYDGDTFYNQKFQGKATLTVDKSSNTAHMELLSLTSEDFAVYYCTRYDGSRAMDYWGQGTTVTVSS
VL: DIVLTQSPLSLAVSLGQPAIISCKASQSVSFAGTSLMHWYHQKPGQQPRLLIYRASNLEAGVPDRFSGSGSKTDFTLTISPVEAEDAATYYCQQSREYPYTFGGGTKLEIKR
binding result [7]: no binding (tested: antigen up to 100 nM) | binding result [8]: no binding (tested: antigen up to 100 nM) | binding result [9]: no binding (tested: antibody up to 6 µg/mL) | binding result [10]: no binding (tested: antibody up to 6 µg/mL)
